Among the data in US20100323906 are activity values, retold here.

The data set has as its system XhoI. Description: cleavage_in_vitro. Conditions: 5'-dithiol on upper strand, tethered to 20 nm Au nanoparticle; rate constant at 3.5 nM enzyme (1.5e-3 s-1 at 350 pM); Mg2+ required, inhibited by 10 mM EDTA.

Sequence “AAAGGATCCAAGCTTGAATTCCTCGAGAGATCTGTCGACGATATCGGTACCAAA (double strand) [54-bp ruler dsDNA]” registered an activity of 0.0058 s⁻¹.
